Experimental data published in the nanobody polyreactivity screen of Harvey et al. (2022).

Test: yeast display, Sf9 membrane polyspecificity reagent, FACS + sequencing; frameworks hold sequencing errors
Procedure, shortened: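 Genes from sorted yeast were amplified by colony PCR, read by MiSeq 2 × 250 sequencing and filtered on CDR length. These cells carried a synthetic nanobody library in Saccharomyces cerevisiae BJ5465 and were sorted by FACS into low and high (top ~1%) gates on anti-HA and streptavidin fluorescence. Polyreactivity is labelled according to the gate of origin.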

| Sequence | polyreactivity (PSR sort gate) |
| --- | --- |
| QVQLVESGGGIVQAGGRLRISCAASGFSFRKYAMGWSRQAPGKEREFVASISSTGARTYYADSVKGRFTISRDNAKNTVYLQMTSLKPEDTAVYYCAAAYGRYYYTYDYWGLGTQVTVSS | high polyreactivity |
| QDQLVESGGGLVQAGGCLRLSCAASGSIFIPYAMGSYRQAPGKERELVAAISLGDGNTYYADSVKGRFTISRDNAKYTVYLQMNSLKPEDTAVYYCNAVPRKFGDEYWGQGTQVTVSS | low polyreactivity |
| QVQLVESGGGLVQAGGSLRLSCAASGSIFPYNVMGWYRQAPGKERELVAAISTRGGRTYYADSVKGRVTISRDNAKNTVYLQMNSLKPEDTAVYDCATAGGPYSASGYYGGQGTQVTVSS | high polyreactivity |
| QVQLVESGGGLVQAGGSRRLSCAASGRTFWAYAMRCYRQAPGKERELVAAITASGTRTYYADSVKGRFTISRDNAMNTDYLQRNRLKPQDTAGYYCAAERIWWAHAYPTYVANDYWGQGTQGTVSS | high polyreactivity |
| QVQLVESGGGLVQAGGSLRLSCAASGFTIWAYTMGCYRQAPGKEREFVADITSRGGSTFYADSVKGRFTISRDNAKNTVYLQMNSLKPEDTAVDYCAAEGFDTRMYYWGQGTQVTVSS | high polyreactivity |
| QVQLVESGGGLVQAGGSLRLSCAASGRIFHLYAMGWYRQAPGKERELVAAITFSGGSTYYADSVKGRFTISRDNAKNTVYLQMNSLKPEDTAVYYCAKRSFYLFSSRLPFKYDYGGQGTQVTVSS | low polyreactivity |
| QVQLVESGGGLVQAGGSLRLSCAASGRIFYYNAMGWYREAPGKERELVAVITRSGGRTFYADSVKGRFTISRDNAKNTVYLQMNSLKPEDTAVYYCAARYRYYPVTTRGYYWGQGTQVTVSS | high polyreactivity |
| QVQLVESGGGLVQAGGSLSISCAASDLPGLCYGWYRQAPGKERELVAAMTSNGGSTYYADSVKGRFTISRDNAKITVYLQMNSLKPEDTAVYYCATEHHTVQVYDYWGQGTQVTVSS | low polyreactivity |
| QVQLVESGGGLVQAGGSLRLSSPASGYIISTYVMGWYRQAPGKERDLVAAITRSGGSTYYADSVKGRFTISRDNAKNNVYLQMNSLKPEDTAVYYCNAYLYLYGLSGRYDYWGQGTQVTVSS | high polyreactivity |
| QVQLVESGGGLVQAGGSLRLSCAASGSIFWYNAMGWYRQAPGKERELVAAIRWRGGSTYYADSVKGRFTISRDNAKNTVYLQMNSLKPEDTAVYDCAAQVYVSQLYTSYYYWGQGTQVTVSS | high polyreactivity |
| QVQLVESGGGLVQAGVSLRLTCAASGRIFRRYAMGWYRQAPGKEMEFVAAISYGGGSTYYADSVKGRFTISRDNAKNTVYLQMNSLKPEDTAVYYWNADEVVWGYNYWGQGTQVNVSS | low polyreactivity |
| QVQLEESGGGLFQAGGSLRLSCAASGRTFRLYDMGWYRQAPGKERELVAAISKSGGSTYYADSVKGRFTISRDYAKNPVYVQMNSLKPEDTAVYYCAAGTRVCEYDYWGQGTQVTVSS | high polyreactivity |
| QDQHVESGGGLVQAGGSLRLSCAASGIILSAYAMGWYRQAPGTERELVARISRSGGRTYYADSVKGRFTISRDNAKNTVYLQMNSLKPEDTAVYYCAADYSYGFGLYFGYGYWGQGTQVTVSS | high polyreactivity |
| QVQLVESGGGLVQAGGSLRLSCAASGRILAPYAMGWYRQAPGKERELVAAISASGGTTYYADSVKGRFTISRDNAKNTVYLQMNSLKPEDTAVYYCNARWSPGNLRYGREGDYWGQGTQVTVSS | high polyreactivity |
| QVQLVESGGGLVQAGVSLLISCAASGSTFLLNTMGWYIQAPGKERELVAAISSITGDTYYADSVKVRFTISRDNAKNNDYLQMNSLKPEDTAVYYCAARYYLSSQGWTYDYWGQGTQVTVSS | low polyreactivity |
| QVQLVESGGGLVQAGGSLRLSCAASGSTFIVKAMGWYRHAPGKERELVAAITEDGDTTYYADSVKGRFTISRDNAKKTVYLQMNSLKPEDTAVYYCAAETYYLDDYWGQGTQVTVSS | high polyreactivity |
| QVQLVESGGGLVQAGGSLRISCAASGSTLFNYAMGWYRQAPGKERELVAAIDWGDGTTYYADSVKGRFTISRDNAKNTVYLQMNSLQPEDTAVYYCAAEEFYSPYDYWGQGTQVTVSS | high polyreactivity |
| QVQLVESGGGLVQAGGSLRLSCAASGSIFNYYAMGWYRQAPGKERELVATITTRDGTTYYADSVKGRFTISRDNAKNTVYLQMNSLKPEDTAVYYCAKSWWPSRRTYSFYYWGQGTQVTVSS | high polyreactivity |
| QVQLVESGGGLVQAGGSLRLSCAASGRTFRTYVMGWYRQAPGKEREFVAGITWSSGSTRYADSVKGRFTISRDNAKNTVYLQMNSLKPEDTAVYYCAAKRWPGTDGYWGQGTQVTVSS | high polyreactivity |
| QVQLVESGGGLVQAGGSLRLRCAASGRNFVANGKGWYRQAPGKERELVAAINDGDDTYYADSVKGRFTISRDNAQNTVYLQMNSLKPEDTEVYYCAADIIYGYEVYTYTSDYWGQGTQVTVSS | low polyreactivity |
| QVQLVESGGGLVQAGGSLRLSCAATGSIFEGYAMGWYRQAPGKERELVARITSDDDSTYYADSVKGRFTISRDNAKNSVYLQMNSLKPEDTAVYYCNADYYWTSLAMDSWGQGTQVTVSS | low polyreactivity |
